According to paper PMC8805405 (Journal of Nanobiotechnology, 2022):
Like-named read-outs stand apart in the source and are kept apart here.

B1: humanized anti-TNF-α mAb C5 (C + b) (antibody, V domains shown)
VH: EVQLVESGGGLVKPGGSLRLSCAASGFTFSNHWMNWVRQAPGKGLEWVGEIRSKSINSATHYAAPVKGRFTISRDDSKNTLYLQMNSLKTEDTAVYYCTRNYYGSTYDYWGQGTTVTVSS
VL: EIVLTQSPDFQSVTPKEKVTITCRASQSIGSSLHWYQQKPDQSPKLLIKYASQSFSGVPSRFSGSGSGTDFTLTINSLEAEDAATYYCHQSSSWPFTFGQGTKLEIK
B2: humanized anti-TNF-α mAb C3 (B + b) (antibody, V domains shown)
VH: EVQLVESGGGLVKPGGSLRLSCAASGFTFSNHWMNWVRQAPGKGLEWVGEIRSKSINSATHYAAPVKGRFTISRDDSKNTLYLQMNSLKTEDTAVYYCTRNYYGSTYDYWGQGTTVTVSS
VL: EIVLTQSPDFQSVTPKEKVTITCRASQFIGSSLHWYQQKPDQSPKLLIKYASQSFSGVPSRFSGSGSGTDFTLTINSLEAEDAATYYCHQSHSWPFTFGQGTKLEIK
notes: VH grafting condition b (Remicade CDRs on human germline IGHV3-15*07-JH5); as the heavy chain of m4; heavy-chain constant region; VL grafting condition B (Remicade CDRs on human germline IGKV6-21*01-JK2); light-chain constant region; source: Expi293, transfected, purified (protein A sepharose)
B3: humanized anti-TNF-α mAb C1 (A + a) (antibody, V domains shown)
VH: EVQLVESGGGLVKPGGSLRLSCAASGFTFSNHWMNWVRQAPGKGLEWVGEIRSKSINSATHYAESVKGRFTISRDDSKNTLYLQMNSLKTEDTAVYYCTRNYYGSTYDYWGQGTTVTVSS
VL: EIVLTQSPDFQSVTPKEKVTITCRASQFVGSSIHWYQQKPDQSPKLLIKYASESMSGVPSRFSGSGSGTDFTLTINSLEAEDAATYYCQQSHSWPFTFGQGTKLEIK
notes: VH grafting condition a (Remicade CDRs on human germline IGHV3-15*07-JH5); heavy-chain constant region; VL grafting condition A (Remicade CDRs on human germline IGKV6-21*01-JK2); light-chain constant region; source: Expi293, transfected, purified (protein A sepharose)

Target: T1, recombinant human TNF-α (Homo sapiens, UniProt P01375)
T1 construct: tumor necrosis factor alpha, human, recombinant; also called tumor necrosis factor (TNF)-α; source: bought: R&D Systems
Assay: BLI; BLItz; human TNF-α (5 μg/mL in 10 mM acetate, pH 5) immobilised on AR2G biosensors by EDC/s-NHS; various concentrations of antibody at room temperature; global fit, BLItz Pro 1.2

T1 sequence (P01375 77-233): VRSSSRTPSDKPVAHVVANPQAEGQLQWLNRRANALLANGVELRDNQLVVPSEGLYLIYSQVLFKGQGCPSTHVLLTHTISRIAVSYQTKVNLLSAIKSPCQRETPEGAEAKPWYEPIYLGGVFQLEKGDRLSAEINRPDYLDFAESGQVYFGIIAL

| Binder | Kd | koff | kon | Kd (both partners purified) | koff (both partners purified) | kon (both partners purified) |
| --- | --- | --- | --- | --- | --- | --- |
| B1 | 17.7 nM | 0.000475 s⁻¹ | 26800 M⁻¹ s⁻¹ | – | – | – |
| B2 | – | – | – | 5.5 nM | 0.00015 s⁻¹ | 27200 M⁻¹ s⁻¹ |
| B3 | – | – | – | 0.935 nM | 0.000134 s⁻¹ | 143000 M⁻¹ s⁻¹ |
